The target in the assay is T1, GST-tagged GFA1 (GST-GFA1) (Arabidopsis, UniProt Q9LNC5 1-987).
T1 construct: GAMETOPHYTIC FACTOR 1 (GFA1), Arabidopsis, full-length cDNA in pGEX-4T-1; also called pGEX-4T-GFA1; source: E. coli BL21 (DE3), purified (glutathione-Sepharose 4B)
T1 sequence (looked up): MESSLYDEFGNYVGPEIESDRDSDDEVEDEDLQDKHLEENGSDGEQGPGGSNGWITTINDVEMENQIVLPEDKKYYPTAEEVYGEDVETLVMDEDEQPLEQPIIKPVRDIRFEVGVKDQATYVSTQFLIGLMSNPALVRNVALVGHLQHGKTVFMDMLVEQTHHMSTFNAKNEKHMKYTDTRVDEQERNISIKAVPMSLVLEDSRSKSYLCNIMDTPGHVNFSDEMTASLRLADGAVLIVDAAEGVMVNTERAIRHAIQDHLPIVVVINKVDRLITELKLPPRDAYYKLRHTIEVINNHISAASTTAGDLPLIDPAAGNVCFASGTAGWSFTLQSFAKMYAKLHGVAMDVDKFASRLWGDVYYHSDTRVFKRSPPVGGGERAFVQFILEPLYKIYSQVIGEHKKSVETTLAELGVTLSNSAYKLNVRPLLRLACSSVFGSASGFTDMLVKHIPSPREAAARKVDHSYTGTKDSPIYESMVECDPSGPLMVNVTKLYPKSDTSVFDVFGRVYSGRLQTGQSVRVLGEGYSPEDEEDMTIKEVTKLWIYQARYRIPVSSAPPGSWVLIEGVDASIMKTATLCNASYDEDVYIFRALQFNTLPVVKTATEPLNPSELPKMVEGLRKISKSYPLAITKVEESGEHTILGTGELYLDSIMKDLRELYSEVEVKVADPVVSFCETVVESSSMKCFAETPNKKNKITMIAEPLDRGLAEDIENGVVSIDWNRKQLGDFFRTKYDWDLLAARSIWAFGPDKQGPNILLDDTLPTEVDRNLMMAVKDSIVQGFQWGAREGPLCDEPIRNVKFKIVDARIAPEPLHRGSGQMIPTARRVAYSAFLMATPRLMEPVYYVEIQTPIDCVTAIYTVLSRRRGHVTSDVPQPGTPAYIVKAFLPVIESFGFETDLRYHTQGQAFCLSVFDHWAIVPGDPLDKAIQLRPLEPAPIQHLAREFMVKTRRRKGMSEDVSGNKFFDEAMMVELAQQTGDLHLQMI
Description: pull-down; GST or GST-GFA1 on glutathione-Sepharose 4B beads, His-RID1 added, 4 °C 1–2 h; 50mM Tris-HCl pH 7.5, 100mM NaCl; wash with 150mM NaCl, 25mM imidazole; immunoblot with anti-HIS antibody. Conditions: both partners purified.

B1: hexa-histidine-tagged RID1 (His-RID1) (natural protein, Arabidopsis, UniProt F4IE66 1-717, looked up)
chain: MPSMAQGELKSFVQNSRPNPKSPTVSPFSMRQKIAEHRRSLPIASVEKRLVEEVQKNDILIIVGETGSGKTTQLPQFLYNAGFCREGKMIGITQPRRIAAVTVAKRVAEECEVQLGQKVGYSIRFDDTTSGSTRLKYMTDGLLLREALLDPHLSRYSVIIVDEAHDRSVHTDVLLALLKKIQRTRSQPVSEKTEFGNVASQVQTTTRDANGPQQNGVLKGYQGRKLSPLKLIIMSASLDARVFSEYFGGAKAVHVQGRQFPVDILYTVHPESDYVDATLVTIFQIHFEEKPGDILVFLTGQDEIESVERLVQERLQNIPEDKRKLLPLAIFSALPSEQQMKVFAPAPTGFRKVILATNIAETSITIPGIRYVIDPGFVKARSYDPSKGMESLDVVPASKAQTLQRSGRAGREGPGKSFRLYPEREFEKLEDSTKPEIKRCNLSNIILQLKALGIDDIVGFDFIDKPSRGAIIKALAELHSLGALADDGKLENPVGYQMSRLPLEPVYSKALILANQFNCLEEMLITVAVLSVESIFYDPREKREEARTSKNHFASVEGDHLTYLSVYRESDEFLEKRKAAGSGNNIDKIMKKWCKENYVNSRSLKHARDIYRQIREHVEQIGFNVSSCGNDMLAFRRCLAASFFLKAAQRQLDGTYRALESGEVVHIHPTSVLFRAKPECVIFNELMQTSKKYIKNLTIIDSLWLSELAPHHFQTAE
notes: ROOT INITIATION … 1 (RID1), Arabidopsis, At1g26370, full-length cDNA in pET-28a-c(+); also called pET-28a-RID1; source: E. coli BL21 (DE3), purified (Ni Sepharose 6 Fast Flow)
For the molecule B1, the binding result was “binds”.

Values taken from paper PMC5066494, “Interaction between RNA helicase ROOT INITIATION DEFECTIVE 1 and GAMETOPHYTIC FACTOR 1 is involved in female gametophyte development in Arabidopsis” (Journal of Experimental Botany, 2016).
